Results taken from patent US20210017275A1 (Alector, published 2021).

T1: Human Siglec 5, Fc chimera (R&D Systems) (human, UniProt O15389 17-434, limits assumed)
T1 construct: Bought or recombinant Fc fusion; also called recombinant Siglec-5-Fc; not shown: Fc part
T1 sequence: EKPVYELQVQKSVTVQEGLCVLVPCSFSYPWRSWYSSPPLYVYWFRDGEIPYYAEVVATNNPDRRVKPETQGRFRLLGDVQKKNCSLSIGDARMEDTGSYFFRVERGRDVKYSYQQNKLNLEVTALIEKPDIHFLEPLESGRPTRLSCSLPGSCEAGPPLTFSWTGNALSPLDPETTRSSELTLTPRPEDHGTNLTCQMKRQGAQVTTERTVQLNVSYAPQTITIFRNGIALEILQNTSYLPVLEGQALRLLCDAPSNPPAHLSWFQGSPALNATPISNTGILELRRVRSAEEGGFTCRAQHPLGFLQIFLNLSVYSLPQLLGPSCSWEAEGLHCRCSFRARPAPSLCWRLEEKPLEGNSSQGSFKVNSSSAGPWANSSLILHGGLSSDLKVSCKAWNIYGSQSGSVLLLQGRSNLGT

T2: human Siglec-5 expressed on human primary cells (human, UniProt O15389 17-551)
T2 construct: Endogenous receptor on human primary monocytes, dendritic cells, macrophages and neutrophils; also called CD170
T2 sequence: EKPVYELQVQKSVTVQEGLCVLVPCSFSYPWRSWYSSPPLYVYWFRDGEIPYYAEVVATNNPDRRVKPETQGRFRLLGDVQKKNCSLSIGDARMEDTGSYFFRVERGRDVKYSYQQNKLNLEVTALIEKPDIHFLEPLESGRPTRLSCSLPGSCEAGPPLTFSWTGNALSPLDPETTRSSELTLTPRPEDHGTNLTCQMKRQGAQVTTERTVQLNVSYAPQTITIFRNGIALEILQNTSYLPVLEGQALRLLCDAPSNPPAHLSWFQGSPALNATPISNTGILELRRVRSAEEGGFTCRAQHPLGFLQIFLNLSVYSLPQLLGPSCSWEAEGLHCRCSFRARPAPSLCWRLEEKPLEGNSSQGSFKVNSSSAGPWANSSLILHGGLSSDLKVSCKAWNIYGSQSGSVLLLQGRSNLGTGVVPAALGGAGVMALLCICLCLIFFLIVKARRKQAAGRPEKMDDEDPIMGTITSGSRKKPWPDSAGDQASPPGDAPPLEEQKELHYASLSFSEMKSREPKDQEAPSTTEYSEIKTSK

T3: Histidine-tagged human Siglec-5 (NovoProtein) (human, UniProt O15389 17-434, limits assumed)
T3 construct: Bought protein; also called Siglec-5-his tagged protein; not shown: histidine tag
T3 sequence: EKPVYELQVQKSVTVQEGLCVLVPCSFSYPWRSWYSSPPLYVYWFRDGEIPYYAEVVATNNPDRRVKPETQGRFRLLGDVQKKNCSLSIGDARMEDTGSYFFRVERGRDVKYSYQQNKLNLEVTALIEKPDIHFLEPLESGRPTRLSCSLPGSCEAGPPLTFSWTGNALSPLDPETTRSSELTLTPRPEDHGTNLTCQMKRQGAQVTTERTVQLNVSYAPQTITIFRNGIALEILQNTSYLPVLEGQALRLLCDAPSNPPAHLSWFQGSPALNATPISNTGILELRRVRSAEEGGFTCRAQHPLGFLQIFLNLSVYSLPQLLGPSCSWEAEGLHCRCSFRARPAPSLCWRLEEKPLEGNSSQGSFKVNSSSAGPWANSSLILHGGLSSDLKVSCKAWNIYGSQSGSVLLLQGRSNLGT

B1: anti-Siglec-5 monoclonal antibody 7A5 (antibody, IgG1, V domains shown)
VH: EIQLQQSGPELVKPGASVKVSCKASGYSFTDYNMYWVKQSHGKSLEWIGYIDPYNGGTTYNQKFKGKATLTVDKSSSTAFMHLNSLTSEDSAVFYCAFYYGYYGVPYWGQGTLVTVSA
VL: DIVMIQSQKFMSTSVGDRVSVTCKASQNVDTNVAWYQQKPGQSPKALIYSASYRYSGVPDRFTGSGSGTDFTLTISNVQSEDLAEYFCQQYNSFPLTFGSGTKLEIK
B2: anti-Siglec-5 monoclonal antibody 8A1 (antibody, IgG1, V domains shown)
VH: EIQLQQSGPELVKPGASVKVSCKASDYAFTSYNIYWVKQSHGKSLEWIGYIDPYNGGTSYNQTFKGKATLTVDKSSSTAYMHLNSLTSEDSAVYYCAMKVGYEAMDYWGQGTSVTVSS
VL: DIVMTQSQKFMSTSVGDRVSVTCKASQNVGTYVAWYQQKPGQSPKALIYSASYRYSGVPDRFTGSGSGTDFTLNISNVQSEDLAEYFCQQFNSYPYTFGGGTKLEIK
B3: anti-Siglec-5 monoclonal antibody 5H2 (antibody, IgG1, V domains shown)
VH: EVQLQQSGPELVKPGASVKVSCKASGYSFTDYNMYWVKQSHGKSLEWIGYIDPYNGGTSYNQKFKGKATLTVDKSSSTAFMLLNSLTSEDSAVYYCALYYDYDGIPYWGQGTLVTVSA
VL: DIVMTQSQKFMSTSVGDRVSVTCKASQNVGTNVAWYRQKPGQSPKALIYSASYRYNGVPDRFTGSGSGTDFTLTISNVQSEDLAEYFCQQYNSYPYTFGGGTKLEIK
B4: anti-Siglec-5 monoclonal antibody 10F9 (antibody, IgG1, V domains shown)
VH: EIQLQQSGPELVKPGASVKVSCKASGYSFTGYNMYWVKQSHGKSFEWIGYIDPYTGGTSYNQRFKGKATLTVDKSSSTAFMHLNSLTSEDSAIYYCALFYDYDGFPYWGQGTLVTVSA
VL: DIVMTQSQKFMSTSVGDRVSVTCKASQNVDTNVAWYQQKPGQSPKALIYSASYRYSGVPDRFTGSGSGTDFTLTISNVQSEDLAEYFCQQYNSYPYTFGGGTKLEIK
B5: anti-Siglec-5 monoclonal antibody 11H3 (antibody, IgG1, V domains shown)
VH: QVQLQQSGPELVKPGASVKVSCKASDYAFTSYNIYWVKQSHGKSLEWIGYIDPYNGGTSYNQTFKGKATLTVDKSSSTAYMHLNSLTSEDSAVYYCAMKVGYEAMDYWGQGTSVTVSS
VL: DIQMTQSQKFMSTSVGDRVSVTCKASQNVGTNVAWYQQKPGQSPKALIYSASYRYSGVPDRFTGSGSGTDFTLNISNVQSEDLAEYFCQQFNSYPYTFGGGTKLEIK
B6: anti-Siglec-5 monoclonal antibody 10B6 (antibody, IgG1, V domains shown)
VH: EIQLQQSGPELVKPGASVKVSCKASGYSFTDYNMYWVKQSHGKSLECFGYIDPYNGGPYYNQKFKGKATLTVDKSSSTAFMHLNSLTSEDSAVYYCAFYYGYYGVPYWGQGTLVTVSA
VL: DIVMTQSQKFMSTSVGDRVSVTCKASHNVGTSVAWYQQKPGQSPKSLIYSASYRYSGVPDRFTGSGSGTDFTLTISNVQSEDLAEYFCQQYNSYPLTFGSGTKLEIK
B7: anti-Siglec-5 monoclonal antibody 9B1 (antibody, IgG1, V domains shown)
VH: QVQLQQSGAELVKPGASVKLSCKASGYTFTEYTIHWVKQRSGQGLEWIGWFYPGSGSIKYNEKFKDKATLTADKSSSTVYMELSRLTSEDSAVYFCARQEEGGIGFDYWGQGTTLTVSS
VL: DVLMTQTPLSLLVSLGDQASISCRSSQSIVHSNGNTYLEWYLQKPGQSPKLLIYKVSIRFSGVPDRFSGSGSGTDFTLKISRVEAEDLGVYYCFQGSHVPWTFGGGTKLEIK
B8: anti-Siglec-5 monoclonal antibody 8C3 (antibody, IgG1, V domains shown)
VH: QVQLQQSGGGLVKPGTSVKLSCKASGYIFTEYIIHWVKQRSGQGLEWIGWFYPGIISIKYNEKFKDKATLTADKSSSTVYMELSRLTSEDSAVYFCAGHEGYDGAMDYWGQGTSVTVSS
VL: DVLMTQTPLSLPVSLGDQASISCRCSQSIVHSNGNTYLEWYLQKPGQSPKLLIYRVSNRFSGVPDRFSGSGSGTDFTLKISRVEAEDLGVYYCFQGSHVPWTFGGGTKLEIK
B9: anti-Siglec-5 monoclonal antibody 11C6 (antibody, IgG1, V domains shown)
VH: QVQLQQSGAELVKPGASVKLSCKASGYTFTEYTIHWVKQRSGQGLEWIGWFYPGSGSIKYNEKFKDKATLTAVKSSSTVYMEFSRLTSEDSAVYFCARQDYDGLGFAYWGQGTLVTVSA
VL: DVLMTQTPLSLPVSLGDQASISCRSSQTIVHSNGNTYLEWYLQKPGQSPKLLIYKVSNRFSGVPDRFSGSGSGTDFTLKISRVEAEDLGVYYCFQGSHVPWTFGGGTKLEIK
notes: also called 1106
B10: anti-Siglec-5 monoclonal antibody 2G5 (antibody, IgG1, V domains shown)
VH: EIQLQQSGPELVKPGASVKVSCKASGYSFTDYNMYWVKQSHGKSLEWIGYIDPYNGNTTYNQRFKGKATLTVDKSSSTAFMHLNSLTSEDAAVYYCATFYGFDGFAYWGQGSLVAVSA
VL: QAVVTQESALTTSPGETVTLTCRSSTGAVTTSNYANWVQEKPDHLFTGLIGTTNNRAPGVPARFSGSLIGDKAALTITGAQTEDEAIYFCALWYSNHLVFGGGTKLTVLG

Tests used:
[1] = target: T1, Human Siglec 5, Fc chimera (R&D Systems); assay: RBC adhesion to plate-bound Siglec-5-Fc, 0.3 ug/ml mAb, percent of binding without antibody
Description: (§1) Siglec-5 antibodies (0.3 μg/ml or 1.0 μg/ml) were bound for one hour at RT with gentle rocking. After removal of unbound antibody, red blood cells were added to each well at a concentration of 3.0 ×10⁶ cells per ml and incubated at RT for one hour. Unbound RBCs were then carefully washed off 3X with PBS, and water was added to each well for hypotonic lysis of bound RBCs. The plate was transferred to -80° C. for 10 minutes, followed by 37° C. for 15 minutes. Bound RBCs were detected by peroxidase activity, followed by 2N sulfuric acid to stop the reaction.

[2] = target: T2, human Siglec-5 expressed on human …; assay: flow cytometry, human primary dendritic cells, 10 ug/ml mAb
Description: (§2) Initial characterization of Siglec-5 antibodies involved determining their ability to bind Siglec-5 expressed on human primary monocytes, human primary macrophages, human primary dendritic cells, and human primary neutrophils. Cells were harvested, plated at 10⁶1m1 in a 96 well plate, and incubated in 100 μl PBS containing 2% FBS, 2 mM EDTA and 10 μg/ml Mab and Fc blocking reagent for 1 hour in ice. […] Cells were washed twice in cold PBS and analyze by flow cytometry on a BD FACS Canto. Data analysis and calculation of MFI values was performed with FlowJo (TreeStar) software version 10.0.7.
(§3) Binding is compared to an isotype control.

[3] = target: T2, human Siglec-5 expressed on human …; assay: flow cytometry, human primary macrophages, 10 ug/ml mAb
Description: as §2, §3

[4] = target: T2, human Siglec-5 expressed on human …; assay: flow cytometry, human primary neutrophils, 10 ug/ml mAb
Description: as §2, §3

[5] = target: T1, Human Siglec 5, Fc chimera (R&D Systems); assay: RBC adhesion to plate-bound Siglec-5-Fc, 1.0 ug/ml mAb, percent of binding without antibody
Description: as §1

[6] = target: T3, Histidine-tagged human Siglec-5 …; assay: SPR (BiaCore T200, 25 C), mAb captured on anti-mouse IgG, 15 nM His-tagged Siglec-5, single-concentration 1:1 fit
Description: The binding affinity of each anti-Siglec-5 antibody was determined by measuring their KD by surface plasmon resonance (SPR) assays. SPR data was collected at a rate of 10 Hz at 25° C. on a BiaCore T200 instrument. Data analysis was performed using BiaCore T200 Evaluation
Histidine-tagged human Siglec-5 (NovoProtein) was then flowed over the captured anti-Siglec-5 surface (120 s contact time, 30 4/min flow rate, 300 s dissociation time). […] Duplicate single-concentration trials were performed and bracketed by a blank (0 nM antigen) sample. The chip surface was regenerated in between cycles using 10 mM glycine-HCl, pH 1.7 (60 s contact time, 30 4/min flow rate, 60 s stabilization time). The resulting SPR signal was obtained as the difference in response from measurements performed on a blank flow cell.
Affinity constants (KD) were calculated from the ratio kd/kₐ.

[7] = target: T2, human Siglec-5 expressed on human …; assay: flow cytometry, human primary monocytes, 10 ug/ml mAb
Description: as §2, §3

Percent RBC Binding to Siglec-5 [1] [%]	% Positive [2] [%]	MFI [2]	% Positive [3] [%]	MFI [3]	% Positive [4] [%]	MFI [4]	Percent RBC Binding to Siglec-5 [5] [%]	Kd [6] [pM]	% Positive [7] [%]	MFI [7]	Binder
47.4	90.3	467	84.1	445	94.6	261	6.86	112	93.5	391	B1
19	85.7	349	83	457	89	219	8	229	98	398	B2
36.5	94	515	93.5	537	98.1	329	9.94	184	96.1	404	B3
48.7	95.6	589	96.2	562	98.9	371	6.22	104	95.3	405	B4
38.5	86	377	84.1	444	97.8	367	6.17	569	95.5	376	B5
27.5	93.6	607	94.4	581	94.4	253	5.21	101	98.2	421	B6
29.2	96.1	660	94	560	99.2	411	5.79	69	97.6	382	B7
24.2	94.9	512	92	490	96	320	5.36	43	94.8	377	B8
25.4	86.9	402	80.6	451	99.7	500	4.76	166	95.7	386	B9
31.8	90.7	459	91.8	569	87.4	207	6.73	81	97.3	368	B10
